Reference: patent WO2021228904A1 (dated 2021)
Residue numbers refer to the chain shown, from its start.

B1: SEQ ID NOs: 405/409 (HCVR/LCVR) (antibody, V domains shown)
VH: EVQLVESGAEVKKPGASVKVSCKVSGYTLPELSMHWVRQTPGKGLEWMGGFDPEDGETIYAQKFQGRVTMTEDTSTDTAYMELSSLRSEDTAVYYCATGPTIAAAATNWFDPGGQGTLVTVSS
VL: QPVLTQPASVSGSPGQSITISCTGTSSDVGGYNYVSWYQQHPGKAPKLMIYDVSNRPSGVSNRFSGSRSGDTASLTISGLQAEDEADYYCSSYTSSSTWVFGGGTKLTVL
B2: COVA1-18 (antibody, V domains shown)
VH: EVQLVESGGGLVQPGGSLRLSCAASGFTVSSNYMSWVRQAPGKGLEWVSVIYSGGSTYYADSVKGRFTISRDNSKNTLYLQMNSLRAEDTAVYYCARVEWAAAGTFYWGQGTLVTVSS
VL: QSALTQEPSLTVSPGGTVTLTCGSSTGAVTSGHYPYWFQQKPGQAPRTLIYDTSNKRSWTPARFSGSLLGGKAALTLSGAQPEDEAEYYCLLSYSGVWVFGGGTKLTVL
B3: SEQ ID NOs: 525/529 (HCVR/LCVR) (antibody, V domains shown)
VH: QVQLQESGPGLVKPSGTLSLTCAVSGGSISSSNWWSWVRQPPGKGLEWIGEIYHSGSSNYNPSLKSRVTISVDKSKNQFSLKLNSVTAADTAVYYCAGRYCSGGRCGWFDPWGQGTLVTVSS
VL: QSVLTQPASVSGSPGQSITISCTGTSSDVGSYNLVSWYQQHPGKAPKLMIYEASKRPSGISNRFSGSKSGNTASLTISGLQAEDEADYYCCSYAGSSTWVFGGGTKPTVL
B4: SEQ ID NOs: 421/425 (HCVR/LCVR) (antibody, V domains shown)
VH: EVQLVQSGAEVKKPGASVKVSCKASGYTFTSYDINWVRQATGQGLEWMGWMNPNSGNTGYAQKFQGRVTMTRNTSISTAYMELSSLRSEDTAVYYCARVVGSSWYPVDAFDIWGQGTRVTVSS
VL: QSVLTQPASVSGSPGQSITISCTGTSSDVGGYNYVSWYQQHPGKAPKLMIYDVSNRPSGVSNRFSGSKSGNTASLTISGLQAEDEADYYCSSYTSSSTLVVFGGGTKLTVL
B5: SEQ ID NOs: 353/357 (HCVR/LCVR) (antibody, V domains shown)
VH: EVQLVQSGAEVKKPGSSVKVSCKASGGTFSSYAISWVRQAPGQGLEWMGGIIPIFGTTNYAQKFQGRVTITTDESTSTAYMELSSLRSEDTAVYYCARVYSYDSSGYYLEYWGQGTRVTVSS
VL: EIVLTQSPATLSLSPGERATLSCRASQSVSSYLAWYQQKPGQAPRLLIYDASNRATGIPARFSGSGSGTDFTLTISSLEPEDFAVYYCQQRSNWPPSITFGQGTRLEIK
B6: SEQ ID NOs: 461/465 (HCVR/LCVR) (antibody, V domains shown)
VH: EVQLVESGAEVKKPGSSVKVSCKASGGTFSSYAISWVRQAPGQGLEWMGGIIPIFGTANYAQKFQGRATITTDESTSTAYMELSSLGSEDTAVYYCARTHSYDNSGQYFDYWGQGTMVTVSS
VL: B5 VL with E1D, L4M, Y32F, S97R, I98L, Q102G, R105K, L106V, E107D
B7: SEQ ID NOs: 509/513 (HCVR/LCVR) (antibody, V domains shown)
VH: QVQLQQSGPGLVKPSETLPLTCTVSGGSISSSSYYWGWIRQPPGKGLEWIGSVFYSGSTYYNPSLKSRVTISVDTSKNQLSLKLSSVTAADTAVYYCARQVRQWLEDDAFDIWGQGTMVTVSS
VL: DIQLTQSPSSLSASVGDRVTITCRASQGIRNDLGWYQQKPGKAPKRLIYAASSLQSGVPSRFSGSGSGTEFTLTISSLQPEDFATYYCLQHNSYPLTFGGGTKVDIK
B8: SEQ ID NOs: 549/553 (HCVR/LCVR) (antibody, V domains shown)
VH: QVQLVQPGAEVKKPGASVKVSCKASGYTFTSYGISWVRQAPGQGLEWMGWISAYNGDTNYAQKLQGRVTMTTDTSTSTAYMELRSLKSDDTAVYYCARFDYGYPYSSWSVLSIDYWGQGTLVTVSS
VL: B7 VL with Q3V, L4M, V104L, D105E
B9: SEQ ID NOs: 637/641 (HCVR/LCVR) (antibody, V domains shown)
VH: QVQLVESGGGLVQPGRSLRLSCAASGFTFDDYAMHWVRQAPGKGLEWVSGISWNSGSIGYADSVKGRFTISRDNAKNSLYLQMNSLRAEDTALYYCAKAEPEVGGYDYYMDVWGKGTMVTVSS
VL: not shown
B10: 001_P1G11 (antibody, V domains shown)
VH: EVQLVQSGTEVKKPGASVKVSCKASGYTFPGYYIHWVRQAPGQGLEWMGWINPNSGVAKSAQKFQGRVTMTRDSSISTVYLDVTSDDTAVYYCARDLVWATVSGTMDVWGQGTTVTVSS
VL: QSALTQPPSASGSPGQSVTISCTGTSSDIGTYNYVSWYQQHPGKAPKLMIYEVTKRPSGVPDRFSGSKSGNTASLTVSGLQADDEGDYYCSSYVGNNNWVFGGGTKLTVL
B11: SEQ ID NOs: 557/561 (HCVR/LCVR) (antibody, V domains shown)
VH: EVQLVESGGGVVQPGRSLRLSCAASGFTFSSYAMHWVRQAPGKGLEWVAVISYDGSYKYYADSVKGRFTISRDNSKNTLYLQMNSLTAEDTAVYYCAREGSRQWLVIYFDYWGQGTLVTVSS
VL: AIRMTQSPSSLSASVGDRVTITCRASQSISSYLNWYQQKPGKAPKLLIYAASSLQSGVPSRFSGSGSGTDFTLTISSLQPEDFATYYCQQSYTTFIYTFGQGTKLEIK
B12: SEQ ID NOs: 581/585 (HCVR/LCVR) (antibody, V domains shown)
VH: EVQLVESGGGLVQPGRSLRLSCAASGFTFDDYAMHWVRQAPGKGLEWVSGISWNSGSIGYADSVKGRFTISRDSAKNSLYLQMNSLRAEDTALYYCAKVATYYYDRSGYYYGGALDYWGQGTLVTVSS
VL: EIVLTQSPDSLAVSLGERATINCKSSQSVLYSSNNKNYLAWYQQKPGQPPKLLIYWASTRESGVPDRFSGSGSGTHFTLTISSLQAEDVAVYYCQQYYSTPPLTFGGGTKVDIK
B13: 002_P2C4 (antibody, V domains shown)
VH: QVQLVESGAEVKKPGSSVKVSCKASGGTFSSYGINWVRQAPGQGLEWMGGIIPIFGTANYAQKFQGRVTITTDESTSTAYMELSSLRSEDTAVYYCASFGDDSGDEGVRWGQGTLVTVSS
VL: EIVMTQSPATLSLSPGERATLSCRASQSVSSYLAWYQQKPGQAPRLLIYDASNRATGIPARFSGSGSGTDFTLTISSLEPEDFAVYYCQQRSNWPPYTFGQGTKVEIK
B14: SEQ ID NOs: 653/657 (HCVR/LCVR) (antibody, V domains shown)
VH: EVQLVESGGGLVQPGRSLRLSCAASGFTFDDYAMHWVRQAPGKGLEWVSGISWNSGSIGYADSVKGRFTISRDNAKNSLYLQMNSLRAEDTALYYCAKMGPDPAHDYGRKNDAFDIWGQGTMVTVSS
VL: DIVMTQSPSSLSASVGDRVTITCRASQSMSSYLNWYQQKPGKAPKLLIYAASSLQSGVPSRFSGSGSGTDFTLTISSLQPEDFATYYCQQSYSTLTFGGGTKLEIK
B15: SEQ ID NOs: 661/665 (HCVR/LCVR) (antibody, V domains shown)
VH: EVQLVESRAEMKKPGESLKISCKGSGYTFTNHWIAWVRQMPGKGLEWMGIIYPGDSDTRYSPSFEGQVTISADKSISTAYLQWSSLKASDTAMYYCARRGYTYGADFYGLDVWGQGTRVTVSS
VL: not shown
B16: SEQ ID NOs: 477/481 (HCVR/LCVR) (antibody, V domains shown)
VH: QVQLVESGGGVVQPGRSLRLSCAASGFTFSSYAMHWVRQAPGKGLEWVAVISYDGSNKYYADSVKGRFTISRDNSKNTLYLQMNSLRAEDTAVYYCARSASGSYYGAFDYWGQGTLVTVSS
VL: QTVVTQPASVSGSPGQSITISCTGTSSDVGGYNYVSWYQQHPGKAPKLMIYDVSNRPSGVSNRFSGSKSGNTASLTISGLQAEDEADYYCSSYTSSSTLGLYVFGTGTKVTVL
B17: SEQ ID NOs: 605/609 (HCVR/LCVR) (antibody, V domains shown)
VH: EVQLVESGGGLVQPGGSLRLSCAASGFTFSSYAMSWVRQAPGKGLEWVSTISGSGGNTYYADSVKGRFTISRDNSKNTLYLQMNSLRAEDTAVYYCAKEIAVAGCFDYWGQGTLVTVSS
VL: QTVVTQPPSVSVSPGQTARITCSGDALPKQYAYWYQQKPGQAPVLVIYKDSERPSGIPERFSGSSSGTTVTLTISGVQAEDEADYYCQSADSSGTYRVFGGGTKLTVL
B18: SEQ ID NOs: 65/69 (HCVR/LCVR) (antibody, V domains shown)
VH: QLQLVESGPGLVKPSETLSLTCTVSGGSISSYFWSWIRQPPGKGLEWIGYIYYSGSTNYNPSLKSRVTISVDTSKNQFSLKLSSVTAADTAVYYCARHSQGWLQQAVAFDIWGQGTMVTVSS
VL: not shown
B19: SEQ ID NOs: 41/45 (HCVR/LCVR) (antibody, V domains shown)
V domain 1: EVQLVQSGGGLVQPGRSLRLSCAASGFTFGEYAMHWVRQAPGKGLEWVSGISWNSGSIDYADSVKGRFTISRDNAKNSLYLQMNSLRAEDTALYYCAKDMGEAVAGTHYGMDVWGQGTMVTASS
V domain 2: QSALTQPPSVSVSPGQTASIPCSGDKLGDIYACWYQQKPGQSPVLVIYQDTKRPSGIPERFSGSNSGNTATLTISGTQAMDEADYYCQAWGSTTAKVFGGGTKLTVP
B20: SEQ ID NOs: 305/309 (HCVR/LCVR) (antibody, V domains shown)
VH: EVQLVESGGGLVKPGGSLRLSCAASGFTFGSYSMSWVRQAPGKGLEWVSSISRSSSYIYNADSVRGRLTISRDNAKNSLYLQMNSLRVEDTAVYYCARDQPLPDILTGYYTGPLDYWGQGTLVTVSS
VL: not shown
B21: SEQ ID NOs: 621/625 (HCVR/LCVR) (antibody, V domains shown)
VH: QVQLVQSGAEVKKPGASVKVSCKVSGYTLTELSMHWVRQAPGKGLEWMGGFDPEDGETIYAQKFQGRVTMTEDTSTDTAYMELSSLRSEDTAVYYCATAYSVDTAMVRGVGYWGQGTLVTVSS
VL: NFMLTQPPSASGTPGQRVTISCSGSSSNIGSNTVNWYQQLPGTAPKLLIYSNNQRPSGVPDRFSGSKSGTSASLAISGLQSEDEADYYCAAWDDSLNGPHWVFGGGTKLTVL
B22: SEQ ID NOs: 57/61 (HCVR/LCVR) (antibody, V domains shown)
VH: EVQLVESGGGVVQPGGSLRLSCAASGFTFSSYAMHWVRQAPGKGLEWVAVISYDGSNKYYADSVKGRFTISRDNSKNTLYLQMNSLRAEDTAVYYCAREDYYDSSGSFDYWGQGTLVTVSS
VL: QSVLTQPASVSGSPGQSITISCTGTSSDVGGYNYVSWYQQHPGKAPKLMIYDVSNRPSGVSNRFSGSKSGNTASLTISGLQAEDEADYYCSSYTSSSTRHWVFGGGTKLTVL

Biological target: T1, stabilized prefusion SARS-CoV-2 S ectodomain (SARS-CoV-2 (Wuhan-Hu-1), UniProt P0DTC2 15-1138)
Assay: SPR

Binder	Kd [nM]
B1	≤ 1
B2	≤ 1

Biological target: T1, stabilized prefusion SARS-CoV-2 S …
Assay: cell-based or functional assay

Binder	IC50, neutralization of live SARS-CoV-2 virus [nM]
B2	0.067

Biological target: T1, stabilized prefusion SARS-CoV-2 S …
Assay: not named there; ELISA in Example 4

Binder	binding result
B3	binds
B4	binds
B5	binds
B6	binds
B7	binds
B8	binds
B9	binds
B10	binds
B11	binds
B12	binds
B13	binds
B14	binds
B15	binds
B16	binds
B17	binds
B18	binds
B19	binds
B20	binds
B21	binds
B22	binds
